Patent US20250304670A1 (AstraZeneca / MedImmune, published 2025)

T1: Biotinylated Scrambled Amyloid Beta 1-42 peptide (N-terminal biotin)
T1 construct: Anaspec custom synthesis; control peptide; also called scrambled human Amyloid beta 1-42 peptide; biotinylated scrambled human Amyloid beta 1-42
T1 peptide: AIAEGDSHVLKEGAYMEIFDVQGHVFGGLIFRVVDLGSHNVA

T2: Biotinylated Murine Amyloid Beta 1-42 peptide (murine, not fully specified; N-terminal biotin)
T2 construct: Anaspec 61718-01
T2 peptide: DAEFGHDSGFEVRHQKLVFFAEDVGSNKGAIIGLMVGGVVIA

T3: Human Amyloid Beta 1-16 truncated peptide (human)
T3 construct: synthetic, unlabelled; also called Abeta 1-16
T3 peptide: DAEFRHDSGYEVHHQK


What was measured:
[1] = target: T4, Biotinylated Human Amyloid Beta 1-42 peptide (human, N-terminal biotin); assay: HTRF direct binding: dilution series of purified His-tagged Fab with biotinylated human Amyloid beta 1-42 peptide, streptavidin cryptate and anti-6his-XL665 (sections 1.3, 1.4)
T4 construct: synthetic (rPeptide A1117 or Bachem H-5642); also called N-terminal biotin Abeta 1-42; synthetic biotinylated human Amyloid beta 1-42 peptide
Procedure: (§1) Selection outputs were screened as unpurified bacterial periplasmic extracts containing sFab, prepared in 50 mM MOPS buffer pH 7.4, 0.5 mM EDTA and 0.5 M sucrose. Ten microlitres of unpurified sFab samples were added to a Costar® 384 well assay plate (Corning, USA; cat: 3676). This was followed by the addition of 5 μl of 20 nM synthetic human Amyloid beta 1-42 and 5 μl of a combined solution of 6 nM streptavidin cryptate and 20 nM anti-his-XL665. Non-specific binding wells (negative controls) were defined for each plate by using a negative control unpurified sFab in place of the test sFab sample. Cross-reactive sFab clones were identified using a concurrent assay with human Amyloid beta 1-40 peptide. […] Assay plates were incubated for 4 hours at room temperature prior to reading time resolved fluorescence on an EnVision plate reader (PerkinElmer, USA) using an excitation wavelength of 320 nm and measuring the emission at 620 nm and 665 nm (100 flashes).
(§2) The sFab with unique protein sequences were expressed in E. coli and purified by affinity chromatography (essentially as described (Bannister et al., 2006)). The Amyloid beta binding profile of each purified sFab was determined by testing a dilution series of the purified sFab in the HTRF™ assay described in section 1.3, substituting the unpurified sFab periplasmic preparation with the purified sFab.

[2] = target: T5, Biotinylated Human Amyloid Beta 1-40 peptide (human, N-terminal biotin); assay: HTRF direct binding: dilution series of purified His-tagged Fab with biotinylated human Amyloid beta 1-40 peptide, streptavidin cryptate and anti-6his-XL665 (sections 1.3, 1.4)
T5 construct: synthetic
Procedure: as §1, §2

[3] = target: T1, Biotinylated Scrambled Amyloid Beta …; assay: direct binding HTRF, purified sFab and scrambled peptide
[4] = target: T2, Biotinylated Murine Amyloid Beta 1-42 …; assay: direct binding HTRF, purified sFab and biotinylated peptide
[5] = target: T6, Amyloid beta plaques on Tg2576 mouse brain sections (human (transgene in Tg2576 mice), UniProt P05067 672-713); assay: in vitro immunohistochemistry, core plaques
T6 construct: mixture of Amyloid beta species in tissue; also called Tg2576 brain sections; Amyloid beta plaques in aged Tg2576 mice

[6] = target: T7, Amyloid beta plaques on human Alzheimer's Disease brain sections (human, UniProt P05067 672-713); assay: in vitro immunohistochemistry, core plaques
T7 construct: mixture of Amyloid beta species in tissue; also called native Amyloid beta; human AD brain sections

[7] = target: T8, Human Amyloid Beta 1-40 peptide (human); assay: TR-FRET peptide competition: dilution series of unlabelled peptide against 1.5 nM biotinylated human Amyloid beta 1-42 peptide for 0.28 nM Abet0144-GL IgG1-TM (section 2.10)
T8 construct: synthetic, unlabelled; also called unlabelled human Amyloid beta 1-40
Procedure: (§3) This involved the use of Europium cryptate labelled anti-human Fc IgG (CisBio International, France; cat: 61 HFCKLB) and XL665 labelled streptavidin (CisBio International, France; cat: 611SAXLB) TR-FRET detection reagents.
(§4) Experiments were set up in Costar 384 well shallow bottom microtitre plates. […] 5 μl of assay buffer only was added to the negative binding assay control wells. […] 5 μl per well of each test peptide serial dilution was then transferred onto the 384 well assay plate. 5 μl of assay buffer only was added to the total and negative binding assay control wells. […] Finally, a combined solution was prepared containing Europium cryptate labelled anti-human Fc (2.4 nM) and XL665 labelled streptavidin (60 nM). 5 μl per well of this solution was added to all wells of the 384 well assay plate such that the final concentrations of Europium cryptate labelled anti-human Fc and XL665 labelled streptavidin were 0.6 nM and 15 nM, respectively.

[8] = target: T5, Biotinylated Human Amyloid Beta 1-40 …; assay: SPR (BIAcore T-100), antibody amine-coupled to a CM3 chip, peptide analyte at 400 nM (section 2.9)
Procedure: (§5) The affinity of binding between each test IgG and each peptide was estimated using assays in which the antibody was covalently coupled by amine-linkage to a proprietary CM3 chip surface to a final surface density of approximately 2,000 RU. The chip surface was regenerated between cycles by a single 40 second injection of 10 mM Glycine pH 2.0 to remove ligand bound to the antibody.
(§6) Blank reference flow-cell data were subtracted from each IgG dataset and a zero-concentration buffer blank was double-reference subtracted from the main dataset to reduce the impact of any buffer artefacts or non-specific binding effects.

[9] = target: T1, Biotinylated Scrambled Amyloid Beta …; assay: as above
Procedure: as §5, §6

[10] = target: T9, Human Amyloid Beta 1-42 peptide (human); assay: SPR (BIAcore T-100), peptide over amine-coupled IgG, 1:1 Langmuir fit
T9 construct: synthetic, unlabelled; also used here for the endogenous peptide of human plasma in the depletion assay; also called unlabelled human Amyloid beta 1-42; synthetic human Amyloid beta 1-42 peptide
Procedure: as §5, with “human Amyloid beta 1-42” for “each peptide”, “amine linkage” for “amine-linkage”
as §6, with “effects. An appropriate binding model was then fitted simultaneously to the data from each analyte titration using the BIAevaluation software.” for “effects.”

[11] = target: T10, human Amyloid beta pyro 3-42 peptide (human, pyroglutamate at residue 3 (the N-terminal residue)); assay: TR-FRET peptide competition against biotinylated human Amyloid beta 1-42
T10 construct: the pyro form (Anaspec 29907) has no entry of its own; also called Abeta pyro-3-42; Abeta Pyro-3-42
Procedure: as §3, §4

[12] = target: T3, Human Amyloid Beta 1-16 truncated …; assay: as above
Procedure: as §3, §4

T5 sequence (peptide, as listed by the source): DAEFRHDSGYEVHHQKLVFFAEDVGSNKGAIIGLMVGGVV
T8 sequence (peptide, as listed by the source): as above

EC50 (read off the curve) [1] | binding result [2] | binding result [3] | binding result [4] | plaque staining score (0-4) [5] | plaque staining score (0-4) [6] | binding result [7] | binding result [8] | binding result [9] | Kd [10] | koff [10] | kon [10] | binding result [11] | binding result [12] | Binder
~6 nM | no binding (tested: 1e-7 M (Log M -7)) | no binding | binds | – | – | – | – | – | – | – | – | – | – | Abet0007 sFab (Fab, V domains shown, soluble single chain Fab fragment (sFab) from the Dyax Fab310-Lambda library, histidine tagged, purified from E. coli; also called Abet0007 Fab; purified Abet0007 Fab) VH: EVQLLESGGGLVQPGGSLRLSCAASGFTFSVYTMWWVRQAPGKGLEWVSVIGSSGGTTVYADSVKGRFTISRDNSKNTLYLQMNSLRAEDTAVYYCAREGQQLVRPYYYYGMDVWGQGTLVTVSS VL: QSVLTQPPSVSVSPGQTASITCSGHNLEDKFASWYQQKSGQSPVLVIYRDDKRPSGIPERFSASNSGHTATLTISGTQATDEADYYCQAQDSTTRVFGGGTKLTVL
– | – | – | – | 1 | 1.5 | no binding (tested: 1e-5 M (logM -5)) | no binding (tested: 400 nM) | no binding (tested: 400 nM) | 9.5 nM | 0.00197 s⁻¹ | 208000 M⁻¹ s⁻¹ | binds | no binding (tested: 10 uM) | Abet0144-GL IgG1-TM (antibody, V domains shown, human IgG1 with the triple mutation L234F/L235E/P331S (TM), human lambda light chain; also called Abet0144-GL (germlined) IgG1-TM) VH: EVQLLESGGGLVQPGGSLRLSCAASGFTFSVYTMWWVRQAPGKGLEWVSVIGSSGGTTVYADSVKGRFTISRDNSKNTLYLQMNSLRAEDTAVYYCAREWMDHSRPYYYYGMDVWGQGTLVTVSS VL: SYELTQPPSVSVSPGQTASITCSGHNLEDKFASWYQQKPGQSPVLVIYRDDKRPSGIPERFSASNSGHTATLTISGTQAMDEADYYCQAQDSTTRVFGGGTKLTVL
